# Experimental data reported in patent publication US20240199757A1.
# Molecular target: T1, human NT5E expressed on MDA-MB-231 cells (human) (UniProt P21589)
# T1 sequence (looked up): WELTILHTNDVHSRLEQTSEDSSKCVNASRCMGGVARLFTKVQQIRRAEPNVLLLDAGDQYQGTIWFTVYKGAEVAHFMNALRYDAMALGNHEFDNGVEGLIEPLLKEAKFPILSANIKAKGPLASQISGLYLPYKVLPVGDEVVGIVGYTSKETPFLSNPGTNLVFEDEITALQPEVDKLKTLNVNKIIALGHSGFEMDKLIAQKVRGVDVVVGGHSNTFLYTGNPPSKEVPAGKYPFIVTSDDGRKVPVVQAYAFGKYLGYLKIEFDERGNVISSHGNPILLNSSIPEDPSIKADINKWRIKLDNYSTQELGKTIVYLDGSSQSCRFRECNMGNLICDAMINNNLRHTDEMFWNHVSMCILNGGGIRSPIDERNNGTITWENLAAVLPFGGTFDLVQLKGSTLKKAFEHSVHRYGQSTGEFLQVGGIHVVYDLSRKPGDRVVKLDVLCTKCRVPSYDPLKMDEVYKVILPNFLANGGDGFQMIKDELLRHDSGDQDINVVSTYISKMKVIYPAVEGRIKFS
# Experiment: cell-based or functional assay
substance,measurement,value
BMS986179 IgG (antibody),"IC50 of NT5E activity on MDA-MB-231 cells, no ATP",0.6 nM
same,"IC50 of NT5E activity on MDA-MB-231 cells, with ATP",1.1 nM
same,maximal inhibition of NT5E on MDA-MB-231 cells,70%
